Consider six variants from FireProtDB (doi:10.1021/bi047926u).

As usually defined, the Tm is the temperature at the midpoint of the melting transition.

Values joined by “and” are separate entries in the source; they are usually repeats but may differ in a detail not shown here. Equal values may be shown once.

B1: Manganese-dependent inorganic pyrophosphatase, P37487 (parent)
chain: MEKILIFGHQNPDTDTICSAIAYADLKNKLGFNAEPVRLGQVNGETQYALDYFKQESPRLVETAANEVNGVILVDHNERQQSIKDIEEVQVLEVIDHHRIANFETAEPLYYRAEPVGCTATILNKMYKENNVKIEKEIAGLMLSAIISDSLLFKSPTCTDQDVAAAKELAEIAGVDAEEYGLNMLKAGADLSKKTVEELISLDAKEFTLGSKKVEIAQVNTVDIEDVKKRQAELEAVISKVVAEKNLDLFLLVITDILENDSLALAIGNEAAKVEKAFNVTLENNTALLKGVVSRKKQVVPVLTDAMAE

Variants of B1 are the subject of one data set. The note with it: Bacillus subtilis (strain 168); pH 7.2; Thermal; CD; TES-KOH 21 mM; KCl 4 mM; reversible: No; structure 1K23; whole UniProt chain shown.
Consider H98Q, for which the melting temperature (Tm) was 48 °C.
On the same count and under the same terms, to D149E belongs 52 °C and 47 °C; to H76Q, 59 °C; to D13E, 44 °C and 42 °C.
On the same count and under the same terms, to D203E belongs 42 °C.
With H9Q, the melting temperature (Tm) came to 54 °C.

Staying with this data set, now noted: Bacillus subtilis (strain 168); pH 7.2; Thermal; CD; TES-KOH 21 mM; KCl 4 mM; transition: 3; reversible: No; structure 1K23; whole UniProt chain shown.
As to D13E, the Tm was 69 °C.
